{"source": "patent EP4714971A1", "about": "(Shanghai Hansoh Biomedical Co., Ltd., dated 2024)", "binders": {"B1": {"name": "hSC200 (hSC17.200) (antibody, human IgG1, kappa, V domains shown)", "VH": "EVQLVQSGAEVKKPGESLKISCKGSGYSFTSSWINWVRQMPGKGLEWMGRIYPGEGDTNYNGNFEGQVTISADKSISTAYLQWSSLKASDTAMYYCTRGLVMDYWGQGTLVTVSS", "VL": "EIVLTQSPATLSLSPGERATLSCRASQSVDYNGISYMHWYQQKPGQAPRLLIYAASNVQSGIPARFSGSGSGTDFTLTISSLEPEDFAVYYCQQSIEDPPTFGGGTKVEIKR", "notes": "also called control molecule; control antibody"}, "B2": {"name": "PR3178 (antibody, human IgG1, kappa, V domains shown)", "VH": "QVQLVQSGAEVKKPGASVKVSCKASGYTFTDYEMHWVRQAPGQGLEWMGGIDPESDNTVYNQKFKGRVTLTEDTSTSTAYMELRSLRSEDTAVYYCTRGDWYFDVWGQGTTVTVSS", "VL": "DIVMTQSPDSLAVSLGERATINCKSSQSLLNSRTRENYLAWYQQKPGQPPKLLIYWASTRESGVPDRFSGSGSGTDFTLTISSLQAEDVAVYYCGQSYNLFTFGQGTKLEIKR", "notes": "Humanized, human IgG1, kappa; also called humanized antibody of cAb3009"}}, "key": {"[1]": {"target": "T1, Recombinant monkey SEZ6-His6 protein (cynomolgus monkey, UniProt Q53EL9 20-925 (human entry))", "T1 construct": "also called Cynomolgus monkey SEZ6-His6", "T1 chain": "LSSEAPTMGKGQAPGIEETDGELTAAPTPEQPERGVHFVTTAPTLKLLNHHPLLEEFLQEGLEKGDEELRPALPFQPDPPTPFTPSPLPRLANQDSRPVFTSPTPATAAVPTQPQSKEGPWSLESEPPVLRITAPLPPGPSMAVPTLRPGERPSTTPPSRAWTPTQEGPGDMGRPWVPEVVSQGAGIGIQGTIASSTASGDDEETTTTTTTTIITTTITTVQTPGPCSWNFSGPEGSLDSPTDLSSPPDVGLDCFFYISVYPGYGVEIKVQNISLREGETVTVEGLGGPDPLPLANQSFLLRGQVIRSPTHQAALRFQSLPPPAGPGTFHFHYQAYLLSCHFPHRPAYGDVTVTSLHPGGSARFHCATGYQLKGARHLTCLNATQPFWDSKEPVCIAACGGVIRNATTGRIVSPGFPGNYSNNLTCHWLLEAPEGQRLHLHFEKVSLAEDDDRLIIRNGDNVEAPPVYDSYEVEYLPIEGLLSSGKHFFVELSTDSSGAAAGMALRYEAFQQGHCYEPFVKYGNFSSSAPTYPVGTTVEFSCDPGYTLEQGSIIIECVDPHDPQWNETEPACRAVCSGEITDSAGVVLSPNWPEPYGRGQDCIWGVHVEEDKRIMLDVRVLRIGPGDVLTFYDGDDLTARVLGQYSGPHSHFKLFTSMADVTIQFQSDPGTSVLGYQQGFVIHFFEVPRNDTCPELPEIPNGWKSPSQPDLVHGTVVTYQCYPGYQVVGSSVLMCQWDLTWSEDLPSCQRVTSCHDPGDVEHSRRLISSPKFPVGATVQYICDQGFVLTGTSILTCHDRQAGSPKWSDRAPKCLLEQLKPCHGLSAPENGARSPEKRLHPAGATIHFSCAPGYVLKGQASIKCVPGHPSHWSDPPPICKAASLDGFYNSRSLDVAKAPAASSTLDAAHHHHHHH", "test": "SPR (BIAcore 8K), antibody captured on protein A chip, SEZ6-His6 as analyte, 1:1 Langmuir model"}, "[2]": {"target": "T2, Recombinant human SEZ6-His6 protein (human, UniProt Q53EL9 20-925)", "T2 construct": "also called His-tagged SEZ6 antigen", "T2 sequence": "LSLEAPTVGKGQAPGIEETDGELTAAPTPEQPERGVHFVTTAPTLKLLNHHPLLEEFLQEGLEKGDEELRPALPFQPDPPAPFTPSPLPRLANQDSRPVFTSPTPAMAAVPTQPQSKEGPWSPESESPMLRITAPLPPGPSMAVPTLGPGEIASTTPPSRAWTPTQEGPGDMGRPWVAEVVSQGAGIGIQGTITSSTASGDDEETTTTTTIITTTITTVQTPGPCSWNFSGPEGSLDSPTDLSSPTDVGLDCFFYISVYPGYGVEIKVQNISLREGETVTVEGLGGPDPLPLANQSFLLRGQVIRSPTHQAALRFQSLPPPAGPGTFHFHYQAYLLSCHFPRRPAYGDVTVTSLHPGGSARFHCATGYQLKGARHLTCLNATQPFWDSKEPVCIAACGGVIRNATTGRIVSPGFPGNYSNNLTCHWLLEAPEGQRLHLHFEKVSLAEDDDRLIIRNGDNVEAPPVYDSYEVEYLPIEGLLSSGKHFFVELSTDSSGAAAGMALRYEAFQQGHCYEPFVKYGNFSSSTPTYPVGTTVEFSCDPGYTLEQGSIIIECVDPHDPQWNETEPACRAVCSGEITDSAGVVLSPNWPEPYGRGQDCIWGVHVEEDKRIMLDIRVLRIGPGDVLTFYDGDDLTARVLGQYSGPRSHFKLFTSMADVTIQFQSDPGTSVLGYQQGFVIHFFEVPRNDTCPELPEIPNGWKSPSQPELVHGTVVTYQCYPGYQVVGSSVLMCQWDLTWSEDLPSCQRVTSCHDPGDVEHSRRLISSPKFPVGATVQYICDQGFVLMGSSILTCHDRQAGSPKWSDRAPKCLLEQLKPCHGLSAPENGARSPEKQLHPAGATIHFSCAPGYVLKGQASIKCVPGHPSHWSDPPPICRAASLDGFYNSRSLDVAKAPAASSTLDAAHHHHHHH", "test": "SPR (BIAcore 8K), antibody captured on protein A chip, SEZ6-His6 as analyte, 1:1 Langmuir model"}, "[3]": {"target": "T3, human SEZ6 expressed on stably transfected CHO-K1 cells (human, UniProt Q53EL9 20-994)", "T3 construct": "also called CHO-SEZ6; hSEZ6", "T3 sequence": "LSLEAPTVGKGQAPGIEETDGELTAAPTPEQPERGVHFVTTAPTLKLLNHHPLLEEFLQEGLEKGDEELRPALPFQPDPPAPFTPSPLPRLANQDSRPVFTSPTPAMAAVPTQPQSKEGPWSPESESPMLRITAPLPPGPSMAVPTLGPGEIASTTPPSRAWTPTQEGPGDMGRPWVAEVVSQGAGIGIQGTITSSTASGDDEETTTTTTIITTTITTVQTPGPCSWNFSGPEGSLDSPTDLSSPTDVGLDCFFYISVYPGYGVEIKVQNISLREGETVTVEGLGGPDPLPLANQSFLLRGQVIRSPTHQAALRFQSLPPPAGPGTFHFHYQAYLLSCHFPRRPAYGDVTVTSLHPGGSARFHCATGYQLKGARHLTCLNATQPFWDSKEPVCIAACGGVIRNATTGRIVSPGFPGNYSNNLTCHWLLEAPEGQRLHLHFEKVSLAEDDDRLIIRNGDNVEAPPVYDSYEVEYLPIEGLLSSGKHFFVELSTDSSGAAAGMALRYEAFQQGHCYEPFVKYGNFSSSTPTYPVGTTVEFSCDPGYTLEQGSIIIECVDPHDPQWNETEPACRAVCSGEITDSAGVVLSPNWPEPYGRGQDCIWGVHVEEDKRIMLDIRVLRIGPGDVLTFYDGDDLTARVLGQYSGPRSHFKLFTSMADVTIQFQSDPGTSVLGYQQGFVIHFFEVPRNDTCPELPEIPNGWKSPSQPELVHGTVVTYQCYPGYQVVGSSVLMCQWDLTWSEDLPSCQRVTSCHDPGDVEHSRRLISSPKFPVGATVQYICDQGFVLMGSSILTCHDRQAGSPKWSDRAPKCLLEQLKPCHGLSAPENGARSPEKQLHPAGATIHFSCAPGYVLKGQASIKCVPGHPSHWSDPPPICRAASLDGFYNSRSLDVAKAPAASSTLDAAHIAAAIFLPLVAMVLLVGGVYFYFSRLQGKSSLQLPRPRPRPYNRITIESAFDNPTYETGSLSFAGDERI", "test": "flow cytometry on CHO-K1 cells expressing human SEZ6"}}}
{"binder": "B1", "values": [{"measurement": "Kd", "setting": "[1]", "result": 57.9, "unit": "nM"}, {"measurement": "koff", "setting": "[1]", "result": 0.00475, "unit": "s⁻¹"}, {"measurement": "kon", "setting": "[1]", "result": 82000, "unit": "M⁻¹ s⁻¹"}, {"measurement": "Kd", "setting": "[2]", "result": 59.9, "unit": "nM"}, {"measurement": "koff", "setting": "[2]", "result": 0.00468, "unit": "s⁻¹"}, {"measurement": "kon", "setting": "[2]", "result": 78200, "unit": "M⁻¹ s⁻¹"}, {"measurement": "EC50", "setting": "[3]", "result": 0.26, "unit": "nM"}, {"measurement": "MFImax", "setting": "[3]", "result": 1160}]}
{"binder": "B2", "values": [{"measurement": "Kd", "setting": "[1]", "result": 1.55, "unit": "nM"}, {"measurement": "koff", "setting": "[1]", "result": 0.000616, "unit": "s⁻¹"}, {"measurement": "kon", "setting": "[1]", "result": 398000, "unit": "M⁻¹ s⁻¹"}, {"measurement": "Kd", "setting": "[2]", "result": 1.61, "unit": "nM"}, {"measurement": "koff", "setting": "[2]", "result": 0.00064, "unit": "s⁻¹"}, {"measurement": "kon", "setting": "[2]", "result": 396000, "unit": "M⁻¹ s⁻¹"}, {"measurement": "EC50", "setting": "[3]", "result": 0.05, "unit": "nM"}, {"measurement": "MFImax", "setting": "[3]", "result": 1300}]}
